Assay results: patent US20250000944A1, “USE OF RECOMBINANT CALRETICULIN IN HAIR GROWTH, HAIR BREEDING, HAIR PROTECTION OR ANTI-HAIR LOSS AND RELATED PRODUCT” (BEIJING YITUBAIHUI BIOTECH CO., LTD, priority 2021, published 2025)
“Also recorded” adds a separate entry of the source.

Legend:
[1] = system: androgenic alopecia model; test: First experiment: testosterone-induced androgenic alopecia model, hair observed by dermatoscope and scanning electron microscopy; format: in vivo, C57BL/6 male mice; settings: 21 days, proteins 0.21 mg/ml injected on the back once a day, minoxidil 5% external, finasteride 13 μg/mL; for changes in hair observed by dermatoscope: compared with the model group (frizzy hair)
Experimental: Experimental animals: C57BL/6 male mice, 6-7 weeks old, weighing (20±2) g, were provided by Beijing Vital River Laboratory Animal Technology Co. Ltd., with the animal license number of SCXK (Beijing) 2021-0006. They were kept in a 12 h light/12 h dark environment, with free access to food and water. The mice were divided into normal NC group (NC), model group (Model), positive control-minoxidil group (Minoxidil), positive control-finasteride group (Finasteride), experimental group A and experimental group B. The proteins were stored in a −70° C. refrigerator and diluted with physiological saline when used. Experimental group A used rh-CRT-1, with a concentration of 0.21 mg/ml. Experimental group B used rh-CRT-2, with a concentration of 0.21 mg/ml. There were 6 mice in each group.
The main reagents used are as follows: 4% paraformaldehyde (Beijing Solarbio Technology Co., Ltd., China), isoflurane (Rayward, China), testosterone (Shanghai Standard Biotechnology Co., Ltd., China), paraffin sectioner (Thermo, USA), small animal anesthesia machine (Rayward, China), and inverted microscope (Olympus, Japan).
Modeling and drug administration: First, the androgenic alopecia model was established. One day before the modeling, the hair in the central part of the back of the experimental animal was removed with a skin preparation knife, and the prepared area was depilated with a depilatory cream. After 24 hours of depilation, the modeling agent (testosterone, 5.0 mg/mL) was subcutaneously injected into the neck of the mice in groups except the NC group, with a total dose of 0.2 mL/mouse. The mice in the NC group were injected with an equal amount of normal saline. After modeling, the mice were administrated with drugs. The NC group was injected with normal saline once a day, 0.15 mL/mouse each time. The experimental group A, experimental group B and positive control group were injected with modeling agent (testosterone), and administrated with drugs after 2 hours, and the dose of modeling agent was 0.2 mL/mouse. The experimental group A and experimental group B were injected on the back once a day, 0.15 mL/mouse each time. The positive control minoxidil group was applied 5% minoxidil externally, 0.01 mL/mouse, once a day. The positive control finasteride group was applied finasteride at a concentration of 13 μg/mL, 0.2 mL/mouse, once a day.

[2] = system: AGA (androgenic alopecia) model mice; test: Third experiment: hair growth score in DHT-induced AGA model mice; format: in vivo, C57BL/6N male mice; settings: Day 17
Experimental: C57BL/6N male mice, 6-7 weeks old, weighing (18-20) g, 50 mice, with the animal license number of SCXK (Beijing) 2021-0006, were kept in a 12 h light/12 h dark environment, with free access to food and water. Adaptive feeding was performed for about 1 week.
The hair in an area of about 2 cm×3 cm at the border of the spine was shaved using an electric shaver. The depilatory area was applied with 8% sodium sulfide solution. After 90±10 s, the depilatory area on the back was cleaned with cotton balls dipped in water, the residual sodium sulfide was washed away with a washing bottle, and then the mice were wiped dry. Because the hair follicle cycle of mice was in the resting phase at this time, the mouse skin was pink. Mice were randomly divided into groups using Excel software, 10 mice in each group, and the modeling was established after 24 h and the drug was administered for 17 consecutive days. The AGA model was established by injecting dihydrotestosterone into the experimental mice. Dihydrotestosterone (DHT) solution was injected subcutaneously at multiple points every day, 100 μL/mouse (5 mg/kg body weight), and then the drug was administered after 3 h of absorption. CRT-2 and CRT-1 protein solutions were applied externally. 100 μL of protein solution was applied, and 100 μl of minoxidil MNX was applied. The CRT and MNX combination group was first applied with CRT-2 protein solution and then MNX 2 hours later. The solvent formula comprised 50% ethanol, 20% propylene glycol, and 30% pure water.
Scoring was based on the coverage of hair growth: • 0 points: no hair growth, pink in the hair removal area; • 1 point: gray in the hair removal area, hair coverage area E<20%; • 2 points: black in the hair removal area, hair coverage area 20%<E<40%; • 3 points: black in the hair removal area with a little hair growth, hair coverage area 40%<E<60%; • 4 points: black in the hair removal area with some hair growth, hair coverage area 60%<E<80%; • 5 points: black in the hair removal area, hair coverage area 80%<E<100%.
The skin color changes of mice were observed before administration every day. The hair removal time of mice was designated as Day 0, the first day of administration was designated as Day 1, and so on. The hair growth of each mouse was recorded and analyzed on Day 7, Day 9, Day 11, Day 13, Day 15, and Day 17.

[3] = system: AGA (androgen alopecia) model mice; test: Fourth experiment: hair growth score in DHT-induced AGA model mice; format: in vivo, C57BL/6N male mice; settings: Day 17; for hair growth score compared with the Model group: external application 100 μL, CRT 0.35 mg/ml, MNX 5 mg/ml
Experimental: The experimental animals were the same as in the third experiment.
The AGA model was established in the same manner as the third experiment, and the administration was carried out as follows: The AGA model was established by injecting dihydrotestosterone into the experimental mice. Dihydrotestosterone (DHT) solution was injected subcutaneously at multiple points every day, 100 μL/mouse (5 mg/kg body weight), and then the drug was administered after 3 h of absorption. CRT-3 and CRT-1 protein solutions were applied externally. 100 μL of protein solution was applied, and 100 μl of minoxidil MNX was applied. The solvent formula comprised 50% ethanol, 20% propylene glycol, and 30% pure water.
The scoring criteria and scoring process were the same as those in the third experiment.

[4] = system: mice with androgenic alopecia; test: Second experiment: testosterone hair loss model, hair growth, skin blackness, scanning electron microscopy and hair follicle count; format: in vivo, C57BL/6 male mice; settings: for hair growth on the back skin: 17th day, 0.15 mL/mouse once a day; for blackness of the back skin (color tester): Day 17; for blackness of the back skin (color tester) / number of hair follicles (pathological section): P<0.01
Experimental: Experimental animals: C57BL/6 male mice, 6-7 weeks old, weighing (20±2) g, were provided by Beijing Vital River Laboratory Animal Technology Co. Ltd., with the animal license number of SCXK (Beijing) 2021-0006. They were kept in a 12 h light/12 h dark environment, with free access to food and water. The mice were divided into normal control group (normal group, NC), model group (Model), experimental group C (rh-CRT-2, with a concentration of 0.35 mg/ml) including an injection group and an external application group, experimental group D (rh-CRT-3, with a concentration of 0.21 mg/ml) including an injection group and external application group, and positive control-minoxidil group (Minoxidil). The proteins were stored in a −70° C. refrigerator and diluted with physiological saline when used. There were 6 mice in each group.
Modeling and drug administration: First, the hair loss model was established. One day before the modeling, the hair in the center of the back of the experimental animal was removed with a skin preparation knife, and the prepared skin area was depilated with a depilatory cream. After 24 hours of depilation, the normal control group was given 75% ethanol, and other groups were injected with testosterone solution (5 mg/mL) prepared with 75% ethanol, 0.01 mL/mouse. Two hours later, the injection groups of experimental group C and experimental group D were injected on the back, 0.15 mL/mouse, once a day, for 17 consecutive days; the external application groups of experimental group C and experimental group D were applied on the back, 0.15 mL/mouse, once a day, for 17 consecutive days. The normal control group and the model group were externally applied with physiological saline, once a day, 0.15 mL/mouse, for 17 consecutive days. During the drug administration process, except for the normal control group, all other groups were injected with the modeling agent (testosterone), and administrated with drugs after 2 hours. […] After the experiment, the mouse skin was pathologically sectioned as follows: The skin pathological tissue was fixed in 4% paraformaldehyde, trimmed, dehydrated and transparent, and then embedded. The slices were cut with a thickness of 6 μm using a paraffin slicer, and further dewaxed, stained, dehydrated, transparent and sealed. The hair follicles in different areas were observed under an optical microscope, and the number of hair follicles was statistically analyzed.
Scanning electron microscopy observation: At the end of the experiment, hair shafts were randomly plucked from the newly formed hair area on the back of each group of mice. Three mice were selected from each group. The plucked hair shafts were fixed and the changes of hair shafts and hair cuticles were observed by scanning electron microscopy.
Statistical analysis: All data were processed using SPSS 17.0 software. One-way ANOVA was used for comparisons among multiple groups. Data were expressed as mean±standard deviation (x±s). P<0.05 was considered statistically significant, and P>0.05 was not considered statistically significant.

[5] = external application group, compared with the model group
[6] = injection group, compared with the model group

`CC(C)(C)NC(=O)[C@H]1CC[C@H]2[C@@H]3CC[C@H]4NC(=O)C=C[C@]4(C)[C@H]3CC[C@]12C` [finasteride, reference compound] was tested, and the “changes in hair observed by dermatoscope” value [1] was “smooth hair” and the “hair cuticles observed by scanning electron microscopy” value [1] was “arranged neatly”.

B1: CRT-1: recombinantly expressed full-length CRT (1-400 aa), amino acid sequence SEQ ID NO: 1, expressed in Pichia pastoris (protein)
chain: EPAVYFKEQFLDGDGWTSRWIESKHKSDFGKFVLSSGKFYGDEEKDKGLQTSQDARFYALSASFEPFSNKGQTLVVQFTVKHEQNIDCGGGYVKLFPNSLDQTDMHGDSEYNIMFGPDICGPGTKKVHVIFNYKGKNVLINKDIRCKDDEFTHLYTLIVRPDNTYEVKIDNSQVESGSLEDDWDFLPPKKIKDPDASKPEDWDERAKIDDPTDSKPEDWDKPEHIPDPDAKKPEDWDEEMDGEWEPPVIQNPEYKGEWKPRQIDNPDYKGTWIHPEIDNPEYSPDPSIYAYDNFGVLGLDLWQVKSGTIFDNFLITNDEAYAEEFGNETWGVTKAAEKQMKDKQDEEQRLKEEEEDKKRKEEEEAEDKEDDEDKDEDEEDEEDKEEDEEEDVPGQAKDEL
With B1 the “changes in hair observed by dermatoscope” value [1] was “smoother”, the “hair cuticles observed by scanning electron microscopy” value [1] was “arranged neatly” and the “hair growth score compared with the Model group” value ([2]; external application 100 μL, CRT 0.35 mg/ml, MNX 5 mg/ml, P<0.05) was “significantly higher”. For the same molecule, the “hair growth score compared with MNX” value ([2]; external application, P>0.05) was “no significant difference”, the “hair growth score compared with the Model group” value ([3]; P<0.05) was “significantly higher” and the “hair growth score compared with MNX” value ([3]; external application, P>0.05) was “no significant difference”.

B2: CRT-3: fragment (1-291 aa) of recombinantly expressed CRT, amino acid sequence SEQ ID NO: 12 (protein)
chain: EPAVYFKEQFLDGDGWTSRWIESKHKSDFGKFVLSSGKFYGDEEKDKGLQTSQDARFYALSASFEPFSNKGQTLVVQFTVKHEQNIDCGGGYVKLFPNSLDQTDMHGDSEYNIMFGPDICGPGTKKVHVIFNYKGKNVLINKDIRCKDDEFTHLYTLIVRPDNTYEVKIDNSQVESGSLEDDWDFLPPKKIKDPDASKPEDWDERAKIDDPTDSKPEDWDKPEHIPDPDAKKPEDWDEEMDGEWEPPVIQNPEYKGEWKPRQIDNPDYKGTWIHPEIDNPEYSPDPSIYAY
B2 was tested, and the “hair growth on the back skin” value ([4]; external application group) was “promoted hair growth”, the “hair growth on the back skin” value ([4]; injection group) was “promoted hair growth” and the “blackness of the back skin (color tester)” value [4, 5] was “significantly increased”. For the same molecule, the “blackness of the back skin (color tester)” value [4, 6] was “significantly increased”, the “hair cuticles under scanning electron microscopy” value [4, 5] was “dense” and the “hair shafts under scanning electron microscopy” value [4, 5] was “became thicker”. For the same molecule, the “number of hair follicles (pathological section)” value [4, 5] was “significantly promoted”, the “hair cuticles under scanning electron microscopy” value ([4]; injection group) was “dense” and the “hair shafts under scanning electron microscopy” value ([4]; injection group) was “thin”. The “number of hair follicles (pathological section)” value [4, 6] was “significantly promoted”, the “hair growth score compared with the Model group” value ([3]; P<0.05) was “significantly higher; also recorded: significantly increased” and the “hair growth score compared with the CRT-1 group” value ([3]; external application, P<0.05) was “better than; also recorded: significantly increased”.
